# Patent US7608407B2, “Fluorescence polarization assay for determining histidine decarboxylase activity” (Boehringer Ingelheim Pharmaceuticals, Inc., priority 2004, dated 2009)
# Substrate: N[C@@H](Cc1c[nH]cn1)C(=O)O
# Test: Km of HDC for its substrate histidine
# Type: biochemical, human
# Conditions: other: 54 Kd form, data not shown
protein,measurement,value
HDC (54 Kd form) (Homo sapiens; S148Q) (protein) MMEPEEYRERGREMVDYICQYLSTVRERRVTPDVQPGYLRAQLPESAPEDPDSWDSIFGDIERIIMPGVVHWQSPHMHAYYPALTSWPSLLGDMLADAINCLGFTWASSPACTELEMNVMDWLAKMLGLPEHFLHHHPSSQGGGVLQQTVSESTLIALLAARKNKILEMKTSEPDADESCLNARLVAYASDQAHSSVEKAGLISLVKMKFLPVDDNFSLRGEALQKAIEEDKQRGLVPVFVCATLGTTGVCAFDCLSELGPICAREGLWLHIDAAYAGTAFLCPEFRGFLKGIEYADSFTFNPSKWMMVHFDCTGFWVKDKYKLQQTFSVNPIYLRHANSGVATDFMHWQIPLSRRFRSVKLWFVIRSFGVKNLQAHVRHGTEMAKYFESLVRNDPSFEIPAKRHLGLVVFRLKGPNCLTENVLKEIAKAGRLFLIPATIQDKLIIRFTVTSQFTTRDDILRDWNLIRDAATLILSQ,Km,275 µM
